Data on 5 molecules can be found in article PMC4935545 (Molecular cell, 2016).

The target of one series is mCLI-Mis18α (human) (UniProt Q9NYP9).
In series [1] the target is His-tagged Mis18α (human) (UniProt Q9NYP9). Put plainly: SEC + other: glycerol gradient sedimentation.
Series [2] has as its target MBP-HJURP^R1 (human) (UniProt Q8NCD3). Briefly: SEC + other: glycerol gradient sedimentation.
For series [3], the target named is Strep-tagged Mis18β (human) (UniProt O43482). Put plainly: SEC + other: glycerol gradient sedimentation.
In series [4] the target is MBP-HJURP^R1 (human) (UniProt Q8NCD3). Put plainly: pull-down.
Series [5] concerns the molecule itself. Briefly: SEC + other: glycerol gradient sedimentation.

What is called stoichiometry N is a count of units in the complex or per binding partner.

Sequence of MBP-HJURP^R1 (human) (Q8NCD3 348-555): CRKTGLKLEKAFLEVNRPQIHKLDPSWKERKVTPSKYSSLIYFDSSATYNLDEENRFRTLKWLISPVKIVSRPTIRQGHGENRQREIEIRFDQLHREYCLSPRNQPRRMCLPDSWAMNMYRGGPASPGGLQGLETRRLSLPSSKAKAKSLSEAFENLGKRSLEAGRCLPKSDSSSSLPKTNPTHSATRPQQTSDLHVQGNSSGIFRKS
Sequence of Strep-tagged Mis18β (human) (O43482 whole entry): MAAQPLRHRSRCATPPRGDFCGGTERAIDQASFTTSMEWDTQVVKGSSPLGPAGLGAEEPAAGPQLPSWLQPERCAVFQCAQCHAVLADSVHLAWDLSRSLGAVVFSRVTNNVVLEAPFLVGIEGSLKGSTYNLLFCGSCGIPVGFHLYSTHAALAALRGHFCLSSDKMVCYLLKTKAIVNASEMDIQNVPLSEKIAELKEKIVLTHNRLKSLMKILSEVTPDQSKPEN
Sequence of mCLI-Mis18α (human) (Q9NYP9 whole entry): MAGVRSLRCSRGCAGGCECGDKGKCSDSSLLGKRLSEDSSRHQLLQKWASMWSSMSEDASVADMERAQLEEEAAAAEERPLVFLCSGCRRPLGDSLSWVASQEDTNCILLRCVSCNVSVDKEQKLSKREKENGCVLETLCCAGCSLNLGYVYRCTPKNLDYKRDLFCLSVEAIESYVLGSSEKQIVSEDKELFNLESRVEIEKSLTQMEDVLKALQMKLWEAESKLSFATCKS

In turn, “GFP-Mis18β (from UniProt O43482 1-229) (natural protein)” returned a percent of transfected cells with recruitment to the array with mCLI-Mis18α (human) of 100%.

For “His-tagged Mis18α (from UniProt Q9NYP9 1-233) (natural protein)”, the stoichiometry N is 2 in series [1], 1 with MBP-HJURP^R1 (human) [2] and 1 in series [3].

Turning to “Mis18α-β heterotetramer (preformed from recombinant Mis18α and Mis18β) (from UniProt Q9NYP9 1-233; O43482 1-229) (complex)”, the fold binding against Mis18α or Mis18β alone in the series with MBP-HJURP^R1 (human) [4] turned out to be 2 fold.

As to “Strep-tagged Mis18β (from UniProt O43482 1-229) (natural protein)”, the stoichiometry N with MBP-HJURP^R1 (human) [2] is 1; in series [3], 2.

B1: S. pombe Mis18 (recombinant) (natural protein, UniProt Q9P802 1-194, looked up)
chain: MSQTETSHSGYIDFKKESQPSVFQCKKCFQIVGDSNAWVISHREYLSFTLSDAVENSVRVEDTFKRSDDGLCVYSELSCTRCNEVIGKVYNSTPIYLDDIRDMYTFSMDKLQAYQLGNKTVNPEGLTRYQVDLEMREDIIKLKSFCLSLYEKFELHDETLRSVKETISSLKKPKIEGKEGKKEKARTYSKRTRK
In the case of B1, in series [5], the “stoichiometry N” value was 4.
